Data reported in article PMC2323325, “Conserved Regulation of MAP Kinase Expression by PUF RNA-Binding Proteins”.

What was measured:
FBF-2 = molecular target: T1, FBF-2 (Caenorhabditis elegans, UniProt Q09312 162-566); test: EMSA; Not stated; gel shift assays performed as described in ref 49; conditions: protein: recombinant
T1 sequence: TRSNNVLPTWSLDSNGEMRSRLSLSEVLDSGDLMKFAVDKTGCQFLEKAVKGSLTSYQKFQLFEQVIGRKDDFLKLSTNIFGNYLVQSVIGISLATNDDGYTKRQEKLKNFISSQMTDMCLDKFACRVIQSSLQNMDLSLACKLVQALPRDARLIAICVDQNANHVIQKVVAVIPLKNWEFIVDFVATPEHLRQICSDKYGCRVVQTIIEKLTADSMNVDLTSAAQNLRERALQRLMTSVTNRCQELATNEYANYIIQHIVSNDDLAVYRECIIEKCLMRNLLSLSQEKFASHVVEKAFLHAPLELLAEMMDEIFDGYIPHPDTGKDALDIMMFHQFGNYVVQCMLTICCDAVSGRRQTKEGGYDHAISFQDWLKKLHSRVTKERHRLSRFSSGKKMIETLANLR

PUM2 = PUM2 (Homo sapiens, UniProt Q8TB72 706-1048); test: as above; conditions: protein: recombinant
Sequence of PUM2 (Q8TB72 706-1048): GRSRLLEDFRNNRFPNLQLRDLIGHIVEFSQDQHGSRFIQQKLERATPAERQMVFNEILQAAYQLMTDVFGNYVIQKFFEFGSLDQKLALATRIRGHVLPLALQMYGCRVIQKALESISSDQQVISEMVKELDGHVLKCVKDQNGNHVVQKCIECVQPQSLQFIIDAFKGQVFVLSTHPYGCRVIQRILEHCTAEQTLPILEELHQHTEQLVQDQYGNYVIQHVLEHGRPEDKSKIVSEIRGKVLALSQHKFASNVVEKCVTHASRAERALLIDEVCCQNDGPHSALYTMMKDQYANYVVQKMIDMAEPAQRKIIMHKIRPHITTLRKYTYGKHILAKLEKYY

AGUUUCUUUUUCGAUGUAUCAUAAUCCA (ssRNA) [mpk-1 FBEa]
Kd (FBF-2): ~93 nM

AGGAGAGAAGAAAGUGUAGAUAGUUAAA (ssRNA) [p38alpha NREb]
binding result (PUM2): binds

UUCAUGAAAAUAAAUGUACAUCUUCUAU (ssRNA) [Erk2 NRE]
binding result (PUM2): binds

UAUUUUACGUAUUUACAAAUAUAUUCAU (ssRNA) [mpk-1 FBEb*]
binding result (FBF-2): no binding

AGUAUAUUUGAAACUGUAAAUAUGUUUG (ssRNA) [p38alpha NREa]
binding result (PUM2): binds

AGUUUCUUUUUCGAACAAUCAUAAUCCA (ssRNA) [mpk-1 FBEa*]
binding result (FBF-2): no binding

UAUUUUACGUAUUUUGUAAUAUAUUCAU (ssRNA) [mpk-1 FBEb]
Kd (FBF-2): ~320 nM
